Consider one substance from FireProtDB (doi:10.1021/bi00009a043).

Values joined by “and” are separate entries in the source; they are usually repeats but may differ in a detail not shown here. Equal entries are not always repeated.

The conditions of the data set: Danio rerio; pH 8; Thermal; DSC; Tris 20 mM; KCl 0.6 M; transition: 3; reversible: no.

Sequence of Tropomyosin alpha-1 chain wild type, P13104 (P13104 whole entry): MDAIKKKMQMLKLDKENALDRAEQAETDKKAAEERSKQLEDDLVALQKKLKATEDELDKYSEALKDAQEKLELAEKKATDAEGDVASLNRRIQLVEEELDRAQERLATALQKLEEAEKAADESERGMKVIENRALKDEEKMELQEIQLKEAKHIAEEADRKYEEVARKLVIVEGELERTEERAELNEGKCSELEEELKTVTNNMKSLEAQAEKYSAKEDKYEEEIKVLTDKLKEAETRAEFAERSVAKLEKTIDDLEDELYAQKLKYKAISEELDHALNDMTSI

Take “Tropomyosin alpha-1 chain wild type, P13104”: the “unfolding enthalpy (van 't Hoff)” value is 118 kcal/mol and 124 kcal/mol and 151 kcal/mol.
